Target: the molecule itself
Experiment: mass photometry; proteins at 1 nM in PBS (pH 7.4), 10 µl analysed over 10 min; monomer (a single disulphide-linked α-β structure) to dimer (two non-covalently associated α-β structures)

| Protein | percent of species in solution that is dimer [%] | stoichiometry N |
| --- | --- | --- |
| clusterin purified from human plasma (natural protein, One 'monomer' is a single α-β structure joined by 5 disulfide bonds; The protein is N-glycosylated at six sites; also called pCLU; human plasma CLU) chain 1: DQTVSDNELQEMSNQGSKYVNKEIQNAVNGVKQIKTLIEKTNEERKTLLSNLEEAKKKKEDALNETRESETKLKELPGVCNETMMALWEECKPCLKQTCMKFYARVCRSGSGLVGRQLEEFLNQSSPFYFWMNGDRIDSLLENDRQQTHMLDVMQDHFSRASSIIDELFQDRFFTREPQDTYHYLPFSLPHRRPHFFFPKSRIVR chain 2: SLMPFSPYEPLNFHAMFQPFLEMIHEAQQAMDIHFHSPAFQHPPTEFIREGDDDRTVCREIRHNSTGCLRMKDQCDKCREILSVDCSTNNPSQAKLRRELDESLQVAERLTRKYNELLKSYQWKMLNTSSLLEQLNEQFNWVSRLANLTQGEDQYYLRVTTVASHTSDSDVPSGVTEVVVKLFDSDPITVTVPVEVSRKNPKFMETVAEKALQEYRKKHREE | ~60 | 2 |
| wild type recombinant human clusterin with the C-tag at the C-terminus of the β-chain (natural protein, The protein is cleaved into α- and β-chains and is glycosylated; also called rCLU-CT; source: MEXi293E cells, transfected, secreted into protein-free medium, purified (Capture Select C-tag column); not shown: C-tag (EPEA), C-terminal, kept) chain 1: SLMPFSPYEPLNFHAMFQPFLEMIHEAQQAMDIHFHSPAFQHPPTEFIREGDDDRTVCREIRHNSTGCLRMKDQCDKCREILSVDCSTNNPSQAKLRRELDESLQVAERLTRKYNELLKSYQWKMLNTSSLLEQLNEQFNWVSRLANLTQGEDQYYLRVTTVASHTSDSDVPSGVTEVVVKLFDSDPITVTVPVEVSRKNPKFMETVAEKALQEYRKKHREE chain 2: DQTVSDNELQEMSNQGSKYVNKEIQNAVNGVKQIKTLIEKTNEERKTLLSNLEEAKKKKEDALNETRESETKLKELPGVCNETMMALWEECKPCLKQTCMKFYARVCRSGSGLVGRQLEEFLNQSSPFYFWMNGDRIDSLLENDRQQTHMLDVMQDHFSRASSIIDELFQDRFFTREPQDTYHYLPFSLPHRRPHFFFPKSRIVR | ~60 | 2 |
| wild type recombinant human clusterin with a twin Streptag at the C-terminus of the α-chain (natural protein, The tag is separated from the inter-chain cleavage motif by a 4-glycine spacer; About 90-95% of the protein is cleaved into α- and β-chains, and it is glycosylated; also called rCLU-αC-ST; rCLU-ST; source: MEXi293E cells, transfected, secreted into protein-free medium, purified (Streptactin-XT); not shown: twin Streptag, C-terminal, kept) chain 1: SLMPFSPYEPLNFHAMFQPFLEMIHEAQQAMDIHFHSPAFQHPPTEFIREGDDDRTVCREIRHNSTGCLRMKDQCDKCREILSVDCSTNNPSQAKLRRELDESLQVAERLTRKYNELLKSYQWKMLNTSSLLEQLNEQFNWVSRLANLTQGEDQYYLRVTTVASHTSDSDVPSGVTEVVVKLFDSDPITVTVPVEVSRKNPKFMETVAEKALQEYRKKHREE chain 2: DQTVSDNELQEMSNQGSKYVNKEIQNAVNGVKQIKTLIEKTNEERKTLLSNLEEAKKKKEDALNETRESETKLKELPGVCNETMMALWEECKPCLKQTCMKFYARVCRSGSGLVGRQLEEFLNQSSPFYFWMNGDRIDSLLENDRQQTHMLDVMQDHFSRASSIIDELFQDRFFTREPQDTYHYLPFSLPHRRPHFFFPKSRIVR | ~60 | 2 |

Reference: publication PMC7455699, “Rapid high-yield expression and purification of fully post-translationally modified recombinant clusterin and mutants” (Scientific Reports, 2020)
